Test results from US20250313626A1 (HARBOUR BIOMED SHANGHAI, published 2025).
Where two headings read alike, the source gives them in different places.

Columns and labels:
[1] = target: T1, human CD200R1 isoform a on CHOK1 cells (CHOK1/hCD200R1a) (human, UniProt Q8TD46 25-348); assay: flow cytometry on CHOK1/hCD200R1a cells
T1 construct: also called CHOK1/CD200R1a
T1 sequence: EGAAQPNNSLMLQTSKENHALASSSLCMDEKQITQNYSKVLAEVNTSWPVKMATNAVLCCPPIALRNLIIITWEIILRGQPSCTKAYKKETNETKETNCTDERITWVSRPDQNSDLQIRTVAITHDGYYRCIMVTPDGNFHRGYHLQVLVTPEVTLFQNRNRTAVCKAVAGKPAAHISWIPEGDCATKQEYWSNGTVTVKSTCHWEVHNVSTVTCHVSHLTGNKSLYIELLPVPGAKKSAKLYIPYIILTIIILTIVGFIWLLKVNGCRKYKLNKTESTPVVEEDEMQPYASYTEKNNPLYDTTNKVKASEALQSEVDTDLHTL
Description: (§1) This example is intended to investigate the in vitro binding activity of human anti-CD200R1 monoclonal antibodies to human/Cynomolgus macaques CD200R1a expressed on the surface of cells. The anti-CD200R1 antibodies were produced as described in Example 3.4 and the binding experiments at the cell level were performed using CHOK1/hCD200R1a and CHOK1-cynoCD200R1a.
(§2) Briefly, CHOK1/hCD200R1a cells and CHOK1-cynoCD200R1a cells were digested, and collected, and then were resuspended in PBS containing 2% BSA, respectively. The cell density was adjusted to 1×10⁶ cells/mL. The cells were seeded in a 96-well V-bottom plate (Corning, #3894) at 100 μL/well, followed by the addition of test antibodies and reference antibodies in a series diluted concentration, each at 100 μL/well. The cells were incubated away from light at 4° C. for 1 h. Thereafter, the cells in each well were rinsed twice with 100 μL of pre-cooled PBS containing 2% BSA, and centrifuged at 500 g at 4° C. for 5 min, and then the supernatant was discarded. […] Finally, the cells in each well were resuspended in 200 μL of pre-cooled PBS containing 2% BSA, and the fluorescence signal values were read using a BD CantoII flow cytometer.

[2] = target: T2, Cynomolgus macaques CD200R1 isoform a on CHOK1 cells (CHOK1/cynoCD200R1a) (Cynomolgus macaques); assay: flow cytometry on CHOK1/cynoCD200R1a cells
T2 chain: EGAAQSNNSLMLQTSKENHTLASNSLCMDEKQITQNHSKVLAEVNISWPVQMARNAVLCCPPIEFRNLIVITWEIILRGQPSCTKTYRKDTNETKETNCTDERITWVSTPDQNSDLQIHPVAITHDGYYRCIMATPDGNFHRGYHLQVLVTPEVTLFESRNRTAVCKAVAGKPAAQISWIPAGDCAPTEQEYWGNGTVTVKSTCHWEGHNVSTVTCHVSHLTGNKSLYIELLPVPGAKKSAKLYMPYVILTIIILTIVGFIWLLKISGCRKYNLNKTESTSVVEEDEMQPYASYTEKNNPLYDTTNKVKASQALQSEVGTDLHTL
Description: as §1, §2

[3] = target: T1, human CD200R1 isoform a on CHOK1 cells …; assay: flow cytometry, Alexa Fluor 647-labelled antibody on CHOK1/hCD200R1a cells
Description: Briefly, CHOK1/hCD200R1a cells and CHOK1-cynoCD200R1a cells were digested, and collected, and then were resuspended in PBS containing 2% BSA, respectively. The cell density was adjusted to 1×10⁶ cells/mL. The cells were seeded in a 96-well V-bottom plate (Corning, #3894) at 100 μL/well, followed by the addition of test antibodies and reference antibodies in a series diluted concentration, each at 100 μL/well. The cells were incubated away from light at 4° C. for 1 h. Thereafter, the cells in each well were rinsed twice with 100 μL of pre-cooled PBS containing 2% BSA, and centrifuged at 500 g at 4° C. for 5 min, and then the supernatant was discarded. […] The cells in each well were rinsed twice with 100 μL of pre-cooled PBS containing 2% BSA, and centrifuged at 500 g at 4° C. for 5 min, and then the supernatant was discarded. Finally, the cells in each well were resuspended in 200 μL of pre-cooled PBS containing 2% BSA, and the fluorescence signal values were read using a BD CantoII flow cytometer.
The cell density was adjusted to 1×10⁶ cells/mL.

[4] = target: T3, CD200R1a on PathHunter Jurkat CD200R1a signaling cells (Eurofins DiscoverX, 93-1136C19) (human, UniProt Q8TD46 25-348); assay: cell-based or functional assay
T3 sequence: T1 sequence

[5] = target: T1, human CD200R1 isoform a on CHOK1 cells …; assay: flow cytometry blocking assay: antibody titrated against biotin-labelled human CD200 binding to CHOK1/hCD200R1a cells
Description: To study the activity of human anti-CD200R1 antibodies in blocking the binding of human CD200 to its receptor CD200R1a in vitro, CHOK1/hCD200R1a was used to perform cell-level human CD200/human CD200R1a binding and blocking experiments.
In brief, CHOK1/hCD200R1a cells were digested and resuspended in 2% BSA in PBS. […] The cells were placed at 4° C. and incubated for 1 hour in the dark. […] 100 μL/well of pre-cooled PBS containing 2% BSA was added to rinse the cells twice, centrifugation was performed at 500 g, 4° C. for 5 minutes, and the supernatant was discarded. Fluorescent secondary antibody (PE Streptavidin, BD, Cat #: 554061, 1:200) was added at 100 μL/well, and incubation was performed at 4° C. for 30 minutes in the dark. The cells were washed twice with 200 μL/well of pre-cooled PBS, and were centrifuged at 500 g, 4° C. for 5 minutes, and the supernatant was discarded. Finally, 200 μL/well of pre-cooled PBS was used to resuspend the cells, and the fluorescence signal values were read using ACEA Novocyte 3000 flow cytometer. IC50 values were calculated.

[6] = target: T1, human CD200R1 isoform a on CHOK1 cells …; assay: flow cytometry, CHOK1/hCD200R1a cells; table beside the curves, head without unit, x axis Log [Ab] (nM)
Description: as §1
Briefly, CHOK1/hCD200R1a cells and CHOK1-cynoCD200R1a cells were digested, and collected, and then were resuspended in PBS containing 2% BSA, respectively. The cell density was adjusted to 1×10⁶ cells/mL. The cells were seeded in a 96-well V-bottom plate (Corning, #3894) at 100 μL/well, followed by the addition of test antibodies and reference antibodies in a series diluted concentration, each at 100 μL/well. The cells were incubated away from light at 4° C. for 1 h. Thereafter, the cells in each well were rinsed twice with 100 μL of pre-cooled PBS containing 2% BSA, and centrifuged at 500 g at 4° C. for 5 min, and then the supernatant was discarded. 100 μL of fluorescent secondary antibody (Alexa Fluor 488-conjugated AffiniPure Goat Anti-Human IgG, Fcγ Fragment Specific, Jackson, #109-545-098, diluted in a 1:1000 ratio) was added in each well, and the plate was incubated away from light at 4° C. for 1 h. The cells in each well were rinsed twice with 100 μL of pre-cooled PBS containing 2% BSA, and centrifuged at 500 g at 4° C. for 5 min, and then the supernatant was discarded. Finally, the cells in each well were resuspended in 200 μL of pre-cooled PBS containing 2% BSA, and the fluorescence signal values were read using a BD CantoII flow cytometer.

Mouse CD200R1-His = target: T4, Mouse CD200R1-His (mouse, UniProt Q9ES57 26-238, limits assumed); assay: BLI (Octet), antibody captured on anti-human Fc sensor
T4 sequence (looked up): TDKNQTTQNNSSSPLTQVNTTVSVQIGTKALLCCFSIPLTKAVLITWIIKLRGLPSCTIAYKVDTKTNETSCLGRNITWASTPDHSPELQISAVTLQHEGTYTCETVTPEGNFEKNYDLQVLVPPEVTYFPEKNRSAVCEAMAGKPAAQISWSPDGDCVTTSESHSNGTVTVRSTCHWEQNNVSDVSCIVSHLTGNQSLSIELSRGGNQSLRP
Description: (§3) To determine the binding affinities of the anti-CD200R1 antibodies to CD200R1a proteins of various species (mouse, human, Cynomolgus macaques), bio-layer interferometry (BLI) assays were carried out using an Octet® RED96e instrument. Antibodies were produced as described in Example 3.4 and diluted to 5 μg/mL using freshly prepared 1× kinetic buffer (10× kinetic buffer (Catalog #18-1105, ForteBio) was diluted with PBS(Catalog #E607016-0500, BBI Life Sciences)) and were captured on the surface of anti-human Fc (AHC) Octet biosensors (Catalog #18-5060, ForteBio) to reach capture levels between 0.9-1.2 nm. The biosensors having the captured anti-CD200R1 antibodies were then dipped in wells containing 2-fold serial dilutions of CD200R1a proteins to detect association signals, followed by dissociation steps in wells containing 1× kinetic buffer. The sensorgrams were recorded and the reference signals were subtracted before curve fitting using ForteBio Data Analysis 11.0 software. Association rates (kₒₙ) and dissociation rates (koff) were calculated using a simple one-to-one Langmuir binding model. The equilibrium dissociation constant (KD) was calculated as the ratio of koff/kₒₙ.

[7] = target: T5, human CD200R1a protein (soluble recombinant) (human, UniProt Q8TD46 29-265); assay: BLI (Octet), antibody captured on anti-human Fc sensor, soluble CD200R1a as analyte, 1:1 fit
T5 construct: Soluble protein used in BLI; also called human CD200R1 isoform a; not shown: His tag implied by capture on anti-Penta-HIS biosensors
T5 sequence: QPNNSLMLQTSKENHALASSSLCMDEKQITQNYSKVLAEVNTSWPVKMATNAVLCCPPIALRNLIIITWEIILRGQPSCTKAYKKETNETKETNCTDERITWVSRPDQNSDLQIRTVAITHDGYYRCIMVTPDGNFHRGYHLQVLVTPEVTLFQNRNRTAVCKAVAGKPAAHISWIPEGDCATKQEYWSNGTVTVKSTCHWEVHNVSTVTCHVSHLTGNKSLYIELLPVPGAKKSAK
Description: as §3

[8] = target: T6, CD200 (human CD200 on CHOK1/hCD200 cells); assay: cell-based or functional assay
T6 single chain: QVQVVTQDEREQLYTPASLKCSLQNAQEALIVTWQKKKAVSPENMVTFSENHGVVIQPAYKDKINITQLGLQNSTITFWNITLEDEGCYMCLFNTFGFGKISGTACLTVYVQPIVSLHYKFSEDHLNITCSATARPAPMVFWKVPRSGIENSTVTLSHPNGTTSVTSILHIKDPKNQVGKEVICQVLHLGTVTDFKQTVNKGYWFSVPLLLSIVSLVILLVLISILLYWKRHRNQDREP

[9] = target: T6, CD200 (human CD200 on CHOK1/hCD200 …); assay: cell-based or functional assay
[10] = target: T6, CD200 (human CD200 on CHOK1/hCD200 …); assay: cell-based or functional assay
[11] = target: T6, CD200 (human CD200 on CHOK1/hCD200 …); assay: cell-based or functional assay
[12] = target: T6, CD200 (human CD200 on CHOK1/hCD200 …); assay: cell-based or functional assay

B1: PR200526 (antibody, human IgG1, lambda, V domains shown)
VH: QVQLVQSGAEVKKPGQSLRISCKGAGYSFSTYWIGWVRQMPGKGLEWMGIIYPDDSDTRYSPSFEGQVTISVDKSITTAYLHWSSLKASDTAIYYCARLVGGAPAYWGQGTLVTVSS
VL: QSALTQPASVSGSPGQSITISCSGSSSDIGRYDYVSWYQHYPDKAPKLIIYEVKHRPSGISHRFSASKSGNTASLTISELQPGDEADYYCASYTESKTYIFGGGTKVTVLG
notes: also called IgG1; hIgG1
What does the source list for B1?
binding result [1]: no binding (tested: log 2.5 nM (about 300 nM)); binding result [2]: no binding (tested: log 2.5 nM (about 300 nM))

B2: PR200691 (antibody, human IgG4 S228P, kappa, F234A L235A, V domains shown)
VH: QVQLVESGGGVVQPGRSLRLSCAASGFTFSRYGMHWVRQAPGKGLEWVAVIPYDGSNKYYADSVKGRFTISRDISKNTLYLQMNSLRAEDTAVYYCARRGYYDSSGYYYFYYGMDVWGQGTTVTVSS
VL: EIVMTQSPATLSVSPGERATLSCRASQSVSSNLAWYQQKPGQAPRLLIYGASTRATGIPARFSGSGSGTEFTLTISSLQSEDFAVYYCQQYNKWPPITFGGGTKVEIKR
Does B2 bind [3]?
Result: binds

B3: PR006475 (antibody, human IgG1, kappa, L234A L235A, V domains shown)
VH: QVQLQESGPGLVKPSGTLSLTCAVSGASISSGHWWSWVRQPPGKGLEWIGEIYHSGSTNYTPSLKSRVTISVDKSKNQFSLKLTSVTAADTAVYYCAREASYHYGSGSYYTPFDFWGQGTLVTVSS
VL: EIVLTQSPATLSVSPGERATLSCRASQSVSSNLAWYQQKPGQAPRLLIYGASTRATGIPARFSGSGSGTEFTLTISSLQSEDFALYYCQQYNNWIIFGQGTRLEIKR
For B3, which “IC50 of the inhibition of CD200-induced PathHunter Jurkat CD200R1a luminescence (CHOK1/hCD200 cells as CD200 source); head without unit, x axis Log [Ab] (nM)” value [4] is on record?
Its value is 10.6 nM.

And the “Blocking (Max %)” value [5]?
The value was 110%.

And the IC50 [5]?
Its IC50 is 32.2 nM.

What about the EC50 [6] of the same binder?
Its EC50 is 6.97 nM.

Does B3 bind (Mouse CD200R1-His)?
Result: no binding

What about the Kd [7] of the same binder?
Its Kd is 12.8 nM.

What about the koff [7] of the same binder?
Its koff is 0.000376 s⁻¹.

And the kon [7]?
The kon was 29400 M⁻¹ s⁻¹.

B4: PR002903 (antibody, human IgG2, kappa, V domains shown)
VH: QVQLQQSGSELKKPGASVKISCKASGYSFTDYIILWVRQNPGKGLEWIGHIDPYYGSSNYNLKFKGRVTITADQSTTTAYMELSSLRSEDTAVYYCGRSKRDYFDYWGQGTTLTVSS
VL: DIQMTQSPSSLSASIGDRVTITCKASQDINSYLSWFQQKPGKAPKLLIYRANRLVDGVPSRFSGSGSGTDYTLTISSLQPEDFAVYYCLQYDEFPYTFGGGTKLEIKR
Which “IC50 of the inhibition of CD200-induced PathHunter Jurkat CD200R1a luminescence (CHOK1/hCD200 cells as CD200 source); head without unit, x axis Log [Ab] (nM)” value [8] does the source give for B4 here?
Its value is 11.9 nM.

What about the “IC50 of the inhibition of CD200-induced PathHunter Jurkat CD200R1a luminescence (CHOK1/hCD200 cells as CD200 source); head without unit, x axis Log [Ab] (nM)” value [9] of the same binder?
The value was 4.18 nM.

And the “IC50 of the inhibition of CD200-induced PathHunter Jurkat CD200R1a luminescence (CHOK1/hCD200 cells as CD200 source)” value [10]?
Its value is 3.4 nM.

And the “IC50 of the inhibition of CD200-induced PathHunter Jurkat CD200R1a luminescence (CHOK1/hCD200 cells as CD200 source)” value [11]?
Its value is 2.4 nM.

And the “IC50 of the inhibition of CD200-induced PathHunter Jurkat CD200R1a luminescence (CHOK1/hCD200 cells as CD200 source)” value [12]?
Its value is 4.01 nM.
